The values below come from patent publication US20030134799A1.

Where two headings read alike, the source gives them in different places.

In assay [1] the target is NMDA receptor of primary cultures of rat cerebellar granule cells (rat). The assay is described as follows: cell-based or functional assay.
Assay [2] concerns the target NMDA receptor of well-washed rat forebrain membranes (rat) (UniProt Q9R1M7). The assay is described as follows: cell-based or functional assay.
Assay [3] has the same target. The assay is described as follows: displacement of [3H]ifenprodil, polyamine-sensitive site.
Assay [4] has the same target.

NMDA receptor of well-washed rat forebrain membranes (rat), sequence (Q9R1M7 24-1135): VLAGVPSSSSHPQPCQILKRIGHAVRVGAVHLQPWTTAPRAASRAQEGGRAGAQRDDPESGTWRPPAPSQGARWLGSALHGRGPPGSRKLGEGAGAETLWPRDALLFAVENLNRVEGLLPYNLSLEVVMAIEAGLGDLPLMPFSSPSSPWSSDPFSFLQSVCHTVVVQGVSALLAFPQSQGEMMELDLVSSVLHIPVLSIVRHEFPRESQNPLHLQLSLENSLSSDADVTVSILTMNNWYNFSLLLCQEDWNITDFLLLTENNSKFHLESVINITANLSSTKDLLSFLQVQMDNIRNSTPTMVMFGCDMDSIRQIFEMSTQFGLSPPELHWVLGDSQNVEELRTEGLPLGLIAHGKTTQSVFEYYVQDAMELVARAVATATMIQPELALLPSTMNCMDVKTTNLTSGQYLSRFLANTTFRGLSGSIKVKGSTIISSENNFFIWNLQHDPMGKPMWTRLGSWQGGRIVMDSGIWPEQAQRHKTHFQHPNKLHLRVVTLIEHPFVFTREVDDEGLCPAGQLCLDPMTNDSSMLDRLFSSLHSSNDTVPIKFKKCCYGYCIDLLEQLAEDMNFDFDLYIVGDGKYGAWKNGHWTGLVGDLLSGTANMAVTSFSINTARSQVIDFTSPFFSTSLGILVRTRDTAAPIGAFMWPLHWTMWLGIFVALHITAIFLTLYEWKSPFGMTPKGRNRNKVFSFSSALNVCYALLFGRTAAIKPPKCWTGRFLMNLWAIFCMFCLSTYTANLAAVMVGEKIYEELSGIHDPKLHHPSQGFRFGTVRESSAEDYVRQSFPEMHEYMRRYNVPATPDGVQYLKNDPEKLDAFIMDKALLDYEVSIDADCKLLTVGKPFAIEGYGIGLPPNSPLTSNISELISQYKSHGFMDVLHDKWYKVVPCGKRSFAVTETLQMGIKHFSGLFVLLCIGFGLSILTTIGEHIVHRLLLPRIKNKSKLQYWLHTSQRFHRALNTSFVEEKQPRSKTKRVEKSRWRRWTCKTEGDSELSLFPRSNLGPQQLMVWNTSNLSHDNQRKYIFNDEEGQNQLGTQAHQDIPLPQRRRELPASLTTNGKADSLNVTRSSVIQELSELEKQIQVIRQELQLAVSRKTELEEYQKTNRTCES

In assay [1], Ala7-Con-G (peptide) came in with an IC50, inhibition of NMDA-stimulated increases in cyclic GMP formation of 0.077 µM and a potency in the cyclic GMP assay relative to Con-G of 4 fold. Moreover, in assay [2], the % Inh, spermine-enhanced [3H]MK-801 binding is 100%; the % Sti, [3H]MK-801 binding without spermine was 0%; the IC50, antagonism of Gly-stimulated [3H]MK-801 binding, representative experiment came to 0.625 µM; the IC50, inhibition of spermine-enhanced [3H]MK-801 binding is 0.045 µM. Besides, in assay [2], the IC50, inhibition of spermine-enhanced [3H]MK-801 binding, typical experiment was found to be 0.05 µM; the IC50, reduction of Gly stimulated [3H]MK-801 binding was found to be 0.5 µM; the IC50, reduction of spermine stimulated [3H]MK-801 binding came to 0.045 µM; the IC (µM), inhibition of spermine-enhanced [3H]MK-801 binding came to 0.046 µM. The potency against spermine relative to Con-G in assay [2] is 4 fold. For the same substance, the 50% inhibitory concentration (IC50) in assay [3] worked out at 2.5 µM. For the same substance, in assay [4], the IC50 is > 2.5 µM.

By IC50 is commonly meant the concentration needed to halve the response being measured. A high value points to weaker potency in that assay.
